Data from patent publication US20250257137A1 (IMBIOLOGICS, published 2025).
Read-outs that look alike come from different tables or passages of the source.

Tests used:
[1] = molecular target: T1, HLA-G protein antigen (human, UniProt P17693 25-308); test: ELISA according to Example 1-4-1
T1 construct: also called HLA-G antigen

[2] = molecular target: T1, HLA-G protein antigen; test: ELISA on HLA-G antigen, according to Example 1-4-1
[3] = molecular target: T1, HLA-G protein antigen; test: SPR according to Example 1-4-1; HLA-G antigen
[4] = molecular target: T2, HLA-G naturally expressed on JEG-3 cells (human, UniProt P17693 25-338); test: flow cytometry on JEG-3 cells that naturally express HLA-G; detection anti-IgM-PE or anti-IgG Fc-FITC; MFI
T2 construct: whole, on cells; also called HLA-G expressing cells; HLA-G receptor in the cell

[5] = molecular target: T3, HLA-G-6× his tag (IMBiologics) (human, UniProt P17693 25-308); test: blocking ELISA: ILT-2 antigen coated at 150 ng/well, HLA-G-6× his added with the dilution, detection HRP anti-6× his; blocked ligand ILT-2
T3 construct: also called recombinant HLA-G protein

[6] = molecular target: T3, HLA-G-6× his tag (IMBiologics); test: as above; remark: listed apart in the source
[7] = molecular target: T4, Fcα/µ receptor (R&D systems) (UniProt Q8WWV6 17-450); test: ELISA, Fcα/µ receptor coated at 100 ng/well; detection HRP anti-IgM (F5µ)
T4 sequence: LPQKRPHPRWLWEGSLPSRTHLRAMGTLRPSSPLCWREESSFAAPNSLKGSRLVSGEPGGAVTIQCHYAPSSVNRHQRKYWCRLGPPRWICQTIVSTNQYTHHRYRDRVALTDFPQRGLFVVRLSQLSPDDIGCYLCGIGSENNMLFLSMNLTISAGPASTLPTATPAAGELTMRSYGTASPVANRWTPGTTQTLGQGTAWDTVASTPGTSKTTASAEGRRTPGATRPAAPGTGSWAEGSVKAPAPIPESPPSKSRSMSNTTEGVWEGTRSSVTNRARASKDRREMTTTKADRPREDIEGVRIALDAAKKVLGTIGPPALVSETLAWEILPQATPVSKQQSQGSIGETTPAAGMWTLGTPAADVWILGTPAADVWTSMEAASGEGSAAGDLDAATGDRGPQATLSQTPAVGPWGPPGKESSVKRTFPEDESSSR

[8] = molecular target: T5, pIgR (polymeric Ig receptor; R&D systems) (UniProt P01833 19-638); test: ELISA, pIgR coated at 100 ng/well; detection HRP anti-IgM (F5µ)
T5 construct: also called pIg receptor
T5 sequence (P01833 19-638 limits assumed): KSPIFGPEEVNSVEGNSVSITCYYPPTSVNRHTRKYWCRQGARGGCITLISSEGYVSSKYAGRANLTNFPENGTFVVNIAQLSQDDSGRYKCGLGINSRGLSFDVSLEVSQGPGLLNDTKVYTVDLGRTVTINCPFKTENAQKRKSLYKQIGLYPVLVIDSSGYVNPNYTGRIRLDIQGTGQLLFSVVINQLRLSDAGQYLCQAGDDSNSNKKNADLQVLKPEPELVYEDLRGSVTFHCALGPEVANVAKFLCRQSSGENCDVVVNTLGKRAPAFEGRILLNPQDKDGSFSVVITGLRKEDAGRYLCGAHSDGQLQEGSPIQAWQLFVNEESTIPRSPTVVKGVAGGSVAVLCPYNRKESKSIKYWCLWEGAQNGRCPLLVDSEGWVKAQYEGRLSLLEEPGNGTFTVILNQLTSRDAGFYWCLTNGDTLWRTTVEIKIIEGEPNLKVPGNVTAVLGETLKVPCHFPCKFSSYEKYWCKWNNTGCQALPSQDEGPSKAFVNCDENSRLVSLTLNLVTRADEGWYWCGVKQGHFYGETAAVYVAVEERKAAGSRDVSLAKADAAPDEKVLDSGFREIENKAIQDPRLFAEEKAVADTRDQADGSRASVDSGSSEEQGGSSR

B1: [(A2014)2-(IgD hinge region)2-(IgM Fc region)]6-(J chain)0 (Fc fusion)
heavy: QVQLQQSGPGLLKPSQTLSLTCAISGDSVSSNRAAWNWIRQSPSRGLEWLGRTYYRSKWYNDYAVSVQGRITLIPDTSKNQFSLRLNSVTPEDTAVYYCASVRAVAPFDYWGQGVLVTVSSASTKGPSVFPLAPSSKSTSGGTAALGCLVKDYFPEPVTVSWNSGALTSGVHTFPAVLQSSGLYSLSSVVTVPSSSLGTQTYICNVNHKPSNTKVDKKVEPKSCRNTGRGGEEKKKEKEKEEQEERETKTPECPSHTQPLGVIAELPPKVSVFVPPRDGFFGNPRKSKLICQATGFSPRQIQVSWLREGKQVGSGVTTDQVQAEAKESGPTTYKVTSTLTIKESDWLSQSMFTCRVDHRGLTFQQNASSMCVPDQDTAIRVFAIPPSFASIFLTKSTKLTCLVTDLTTYDSVTISWTRQNGEAVKTHTNISESHPNATFSAVGEASICEDDWNSGERFTCTVTHTDLPSPLKQTISRPKGVALHRPDVYLLPPAREQLNLRESATITCLVTGFSPADVFVQWMQRGQPLSPEKYVTSAPMPEPQAPGRYFAHSILTVSEEEWNTGETYTCVVAHEALPNRVTERTVDKSTGKPTLYNVSLVMSDTAGTCY
light: not shown
For B1, the “fold improvement of EC50 against the (A2014)-(IgGFc) control protein” value [1] was no less than 1000 fold, the “EC50 (read off the curve)” value [2] was roughly 0.04 nM and the Kd [3] was 0.00232 nM. It also gave a koff [3] of 3.51e-05 s⁻¹ and a kon [3] of 1.48e+07 M⁻¹ s⁻¹.

B2: (A2014)2-(IgG Fc region) (antibody, V domains shown)
VH: QVQLQQSGPGLLKPSQTLSLTCAISGDSVSSNRAAWNWIRQSPSRGLEWLGRTYYRSKWYNDYAVSVQGRITLIPDTSKNQFSLRLNSVTPEDTAVYYCASVRAVAPFDYWGQGVLVTVSS
VL: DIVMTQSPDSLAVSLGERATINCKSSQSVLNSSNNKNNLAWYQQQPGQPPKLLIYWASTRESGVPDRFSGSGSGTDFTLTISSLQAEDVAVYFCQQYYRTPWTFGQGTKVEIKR
notes: also called (A2014)-(IgG Fc); (A2014)-(IgGFc) control protein
For B2, the “EC50 (read off the curve)” value [4] was roughly 0.7 nM, the “IC50 (read off the curve)” value [5] was roughly 30 nM and the Kd [3] was 0.0259 nM. The koff [3] was 0.000305 s⁻¹, the kon [3] was 1.18e+07 M⁻¹ s⁻¹ and the “IC50 (read off the curve)” value [6] was roughly 8 nM.

B3: [(CMVpHLA)2-(linker)2-(IgG Fc region)-(IgM Fc region)]5-(J chain D105K) (Fc fusion)
chain (part 1 of 2): […]
chain (part 2 of 2): QDTAIRVFAIPPSFASIFLTKSTKLTCLVTDLTTYDSVTISWTRQNGEAVKTHTNISESHPNATFSAVGEASICEDDWNSGERFTCTVTHTDLPSPLKQTISRPKGVALHRPDVYLLPPAREQLNLRESATITCLVTGFSPADVFVQWMQRGQPLSPEKYVTSAPMPEPQAPGRYFAHSILTVSEEEWNTGETYTCVVAHEALPNRVTERTVDKSTGKPTLYNVSLVMSDTAGTCY
chain: […]
notes: not shown: IgG Fc
B3: no binding [7].

B4: [(CMVpHLA)2-(linker)2-(IgG Fc region)-(IgM Fc region)]5-(J chain N107F) (Fc fusion)
chain (part 1 of 2): […]
chain (part 2 of 2): QDTAIRVFAIPPSFASIFLTKSTKLTCLVTDLTTYDSVTISWTRQNGEAVKTHTNISESHPNATFSAVGEASICEDDWNSGERFTCTVTHTDLPSPLKQTISRPKGVALHRPDVYLLPPAREQLNLRESATITCLVTGFSPADVFVQWMQRGQPLSPEKYVTSAPMPEPQAPGRYFAHSILTVSEEEWNTGETYTCVVAHEALPNRVTERTVDKSTGKPTLYNVSLVMSDTAGTCY
chain: […]
notes: not shown: IgG Fc
B4: no binding [7].

B5: [(CMVpHLA)2-(linker)2-(IgG Fc region)-(IgM Fc region)]5-(J chain R106V) (Fc fusion)
chain (part 1 of 2): […]
chain (part 2 of 2): QDTAIRVFAIPPSFASIFLTKSTKLTCLVTDLTTYDSVTISWTRQNGEAVKTHTNISESHPNATFSAVGEASICEDDWNSGERFTCTVTHTDLPSPLKQTISRPKGVALHRPDVYLLPPAREQLNLRESATITCLVTGFSPADVFVQWMQRGQPLSPEKYVTSAPMPEPQAPGRYFAHSILTVSEEEWNTGETYTCVVAHEALPNRVTERTVDKSTGKPTLYNVSLVMSDTAGTCY
chain: […]
notes: not shown: IgG Fc
B5: no binding [8].

B6: [(CMVpHLA)2-(linker)2-(IgG Fc region)-(IgM Fc region)]5-(J chain R106A) (Fc fusion)
chain (part 1 of 2): […]
chain (part 2 of 2): QDTAIRVFAIPPSFASIFLTKSTKLTCLVTDLTTYDSVTISWTRQNGEAVKTHTNISESHPNATFSAVGEASICEDDWNSGERFTCTVTHTDLPSPLKQTISRPKGVALHRPDVYLLPPAREQLNLRESATITCLVTGFSPADVFVQWMQRGQPLSPEKYVTSAPMPEPQAPGRYFAHSILTVSEEEWNTGETYTCVVAHEALPNRVTERTVDKSTGKPTLYNVSLVMSDTAGTCY
chain: […]
notes: not shown: IgG Fc
B6: no binding [7].

B7: [(CMVpHLA)2-(linker)2-(IgG Fc region)-(IgM Fc region)]5-(J chain R106Q) (Fc fusion)
chain (part 1 of 2): […]
chain (part 2 of 2): QDTAIRVFAIPPSFASIFLTKSTKLTCLVTDLTTYDSVTISWTRQNGEAVKTHTNISESHPNATFSAVGEASICEDDWNSGERFTCTVTHTDLPSPLKQTISRPKGVALHRPDVYLLPPAREQLNLRESATITCLVTGFSPADVFVQWMQRGQPLSPEKYVTSAPMPEPQAPGRYFAHSILTVSEEEWNTGETYTCVVAHEALPNRVTERTVDKSTGKPTLYNVSLVMSDTAGTCY
chain: […]
notes: not shown: IgG Fc
B7: no binding [7].
